The values below come from US20230295313A1 (published 2023).

The target of experiment [1] is T1, Human IL1RAP ECD (human, UniProt Q9NPH3 21-367).
T1 construct: Analyte in the GSK3903371A SPR study; also called human IL1RAP extracellular domain (ECD); recombinant human IL1RAP ECD
T1 sequence: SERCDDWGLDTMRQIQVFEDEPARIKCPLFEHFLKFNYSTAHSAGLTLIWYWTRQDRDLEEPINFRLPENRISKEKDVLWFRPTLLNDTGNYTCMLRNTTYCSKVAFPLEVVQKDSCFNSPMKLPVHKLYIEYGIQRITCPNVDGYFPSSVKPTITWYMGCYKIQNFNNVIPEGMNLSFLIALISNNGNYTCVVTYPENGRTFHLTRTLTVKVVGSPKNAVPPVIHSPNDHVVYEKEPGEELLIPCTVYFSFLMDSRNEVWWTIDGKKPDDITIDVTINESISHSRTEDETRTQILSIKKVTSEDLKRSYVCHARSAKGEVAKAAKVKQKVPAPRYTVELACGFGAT
The experiment in a line: SPR, antibody captured via Protein A on CM5 chip, 37° C., 1:1 fit, average of 2 runs.

The target in experiment [2] is T2, Soluble Human IL1RAP (sIL1RAP) (human, UniProt Q9NPH3 21-367). The description is as above.
Experiment [3] deals with T3, Cyno IL1RAP ECD (cynomolgus monkey, UniProt A0A2K5X5J5 21-367).
T3 construct: extracellular domain; Analyte in the GSK3903371A SPR study; also called cynomolgus monkey IL1RAP ECD
T3 sequence: T1 sequence with L183F, T273P, K326T
The description is as above.

Experiment [4] addresses T4, human IL1RAP on the cell surface (HEK293/IL1RAP cells; IL1RAP-expressing OCI-AML-1 cells) (human, UniProt Q9NPH3 21-570).
T4 sequence: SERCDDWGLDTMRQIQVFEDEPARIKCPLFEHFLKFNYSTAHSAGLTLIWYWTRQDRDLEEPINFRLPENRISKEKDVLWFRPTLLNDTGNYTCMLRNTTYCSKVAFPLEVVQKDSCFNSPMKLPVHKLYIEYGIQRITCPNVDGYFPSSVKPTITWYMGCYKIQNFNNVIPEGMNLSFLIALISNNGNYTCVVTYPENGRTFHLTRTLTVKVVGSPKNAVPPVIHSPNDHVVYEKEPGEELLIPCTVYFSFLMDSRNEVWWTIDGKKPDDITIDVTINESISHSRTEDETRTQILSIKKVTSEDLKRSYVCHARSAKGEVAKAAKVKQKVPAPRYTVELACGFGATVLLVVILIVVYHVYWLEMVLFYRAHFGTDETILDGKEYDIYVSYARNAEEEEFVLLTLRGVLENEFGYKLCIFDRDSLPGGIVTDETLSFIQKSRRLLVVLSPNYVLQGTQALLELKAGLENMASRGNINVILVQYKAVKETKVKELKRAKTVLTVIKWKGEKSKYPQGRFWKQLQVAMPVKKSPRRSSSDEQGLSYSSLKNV
As to the kind of experiment: cell-based or functional assay.

Experiment [5] deals with T1, Human IL1RAP ECD. The experiment in a line: SPR, antibody captured via Protein A on CM5 chip, 25° C., 1:1 fit, average of 3 runs. Background: Surface plasmon resonance follows binding to a sensor surface in real time, without labels.
For experiment [6], the target named is T2, Soluble Human IL1RAP (sIL1RAP). The experiment is described as above.
Experiment [7] deals with T3, Cyno IL1RAP ECD. Described as above.
Experiment [8] deals with T4, human IL1RAP on the cell surface …. As to the kind of experiment: cell-based or functional assay. This is another data set of the same source.
In experiment [9] the target is T5, human IL1RAP extracellular domain protein (GK002, HuIL1Racp-ECD-His6) (human, UniProt Q9NPH3 21-367).
T5 construct: also called His-tagged human IL-1RAP extracellular domain protein; HuIL1RAP-ECD-His6 (GK002)
T5 sequence: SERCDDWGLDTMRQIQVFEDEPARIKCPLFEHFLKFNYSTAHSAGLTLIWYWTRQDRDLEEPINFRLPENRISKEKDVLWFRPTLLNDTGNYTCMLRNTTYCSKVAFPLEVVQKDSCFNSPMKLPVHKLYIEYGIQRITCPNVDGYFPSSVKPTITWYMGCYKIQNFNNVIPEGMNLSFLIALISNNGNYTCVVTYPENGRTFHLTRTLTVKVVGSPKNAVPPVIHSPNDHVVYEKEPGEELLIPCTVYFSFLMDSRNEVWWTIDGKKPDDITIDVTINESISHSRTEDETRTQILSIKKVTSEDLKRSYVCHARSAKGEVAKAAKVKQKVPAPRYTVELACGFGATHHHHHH
The experiment in a line: SPR (Biacore T200), mAb captured by anti-human IgG Fc on CM5, ECD-His6 as analyte, 1:1 fit.

The target of experiment [10] is T6, cyno IL1RAP (GK017, CynoIL1Racp-ECD-His6) (cyno, UniProt A0A2K5X5J5 21-367).
T6 construct: extracellular domain; also called CynoIL1RAP-ECD-His6 (GK017); cyno IL1RAP-ECD-His6 protein
T6 sequence: T5 sequence with L183F, T273P, K326T
The experiment is described as above.

Experiment [11] addresses T5, human IL1RAP extracellular domain …. The experiment in a line: SPR (Biacore T200), mAb captured by anti-Fc IgG, His-tagged human IL1RAP ECD as analyte.

In general, Kd refers to the constant that tells how readily two partners part at equilibrium. Higher therefore signals weaker binding. Broadly, the koff is the rate constant with which the complex falls apart. For orientation: kon means the rate constant with which the complex forms. Lower therefore signals slow association.

Numbering of substitutions follows the chain as printed.

B1: GSK3903371A (antibody, human IgG1, kappa, V domains shown)
VH: EVQLVQSGAEVKKPGSSVKVSCKASGYTFNSYWIHWVRQAPGQGLEWMGYNNPTSGYSEYNQKFTDRVTITADKSTSTAYMELSSLRSEDTAVYYCAREYGDLFAYWGQGTLVTVSS
VL: AIQMTQSPSSLSASVGDRVTITCKASENVGYSVSWFQQKPGKSPKLLIYGASNRYTGVPSRFSGSGSATDFTLTISSLQPEDFATYHCGQIYIYPYTFGGGTKVEIKR
modifications: heavy chain constant region afucosylated (expressed in FUT8-knockout POTELLIGENT CHO cells)
notes: Humanized IgG1 kappa; also called afucosylated anti-IL1RAP mAb GSK3903371A
In [1], B1 had a Kd of 2.54 nM and a dissociation rate constant (koff) of 0.000942 s⁻¹. Further, in experiment [2], the equilibrium dissociation constant (Kd) is 3.58 nM and the koff came to 0.00101 s⁻¹. Besides, in experiment [3], the affinity, expressed as Kd, was 3.47 nM and the koff came to 0.000946 s⁻¹. In addition, in experiment [4], the “ADCC EC50, PBMC effector cells, OCI-AML-1 target cells, experiment 1” value was 0.0633 nM; the “ADCC EC50, PBMC effector cells, OCI-AML-1 target cells, experiment 2” value came to 0.0589 nM; the “ADCC EC50, PBMC effector cells, OCI-AML-1 target cells, experiment 3” value amounted to 0.0705 nM; the “ADCC EC50, geometric mean (n=3), OCI-AML-1 target cells” value is 0.0641 nM. Besides, in experiment [5], the Kd amounted to 1.61 nM and the off-rate constant (koff) is 0.000268 s⁻¹. In experiment [6], this molecule yielded a Kd of 2.03 nM and a koff of 0.000199 s⁻¹. In [7], the Kd is 1.53 nM and the koff came to 0.000226 s⁻¹. Further, in experiment [8], the “CDC EC50, HEK293/IL1RAP target cells, experiment 1” value was 6.16 nM and the “CDC EC50, HEK293/IL1RAP target cells, experiment 2” value came out at 5.9 nM.

B2: mAb067-12 (humanized) (antibody, human IgG1, kappa, V domains shown)
VH: B1 VH
VL: B1 VL
notes: Fucosylated humanized IgG1; same chains as GSK3903371A; also called HumAb67-12; HumAb067-12
In experiment [9], B2 returned a dissociation constant Kd of 0.953 nM, an off-rate constant (koff) of 0.000161 s⁻¹ and a kon of 169000 M⁻¹ s⁻¹. In experiment [10], this molecule came in with a Kd of 0.899 nM, a koff of 0.00015 s⁻¹ and an on-rate (kon) of 167000 M⁻¹ s⁻¹. In experiment [8], the “CDC EC50, HEK293/IL1RAP target cells, experiment 1” value amounted to 5.13 nM and the “CDC EC50, HEK293/IL1RAP target cells, experiment 2” value came out at 4.7 nM.

B3: mAb063 (antibody, V domains shown)
VH: EVQLQQSGPELVKPGASVKISCKASGYTFTDYYMNWVKQSHGKSLEWIGHINPNSGSTTYTEKFKDKATLTVDKSSSTAYMELRSLTSDDSAVYYCVRRIGKNWHCDVWGTGTTVTVSS
VL: DIVLTQSPASLAVSLGQRATISCRASESVNFHGTHLMHWYQQKPGQAPKLLIYAASNLDSGVPARFSGSGSETDFTLNIHPVEEEDAATYFCQQSIEDPFTFGSGTYLEIK
notes: Murine anti-human IL1RAP mAb; also called murine mAb063
In [11], B3 had a Kd of 0.0496 nM, a koff of 2.12e-05 s⁻¹ and an association rate constant (kon) of 426000 M⁻¹ s⁻¹.

B4: murine mAb067 (antibody, V domains shown)
VH: QVKLHQSGAELAKPGASVKMSCKASGYTFNSYWIHWVKQRPGQGLEWIGYNNPTSGYSEYNQKFTDKATLSADKSSSTAYMQLSSLTSEDSAVYYCVREYGDLFAYWGQGTLVTVSA
VL: NIVMTQSPKSMSMSVGERVTLSCKASENVGYSVSWFQQKPDQSPKLLIYGASNRYTGVPDRFTGSGSATDFTLTISTVQAEDLADYHCGQIYIYPYTFGGGTKLEIK
notes: Murine anti-human IL1RAP mAb
As for B4, in experiment [11], the dissociation constant Kd was found to be 0.3 nM, the dissociation rate constant (koff) was found to be 0.000102 s⁻¹ and the association rate constant (kon) is 340000 M⁻¹ s⁻¹.

B5: murine mAb001 (antibody, V domains shown)
VH: QVQLQQPGAELVRPGSSVKLSCKASGYTFTSYWMDWVKQRPGQGLEWIGNIYPSDSKTHYNQKFKDKATLTVDKSSSTAYMQLSSLTSEDSAVYYCARDYYGSIGMDYWGQGTSVTVSS
VL: DIQMTQSPSSLSASLGERVSLTCRASQEISGYLSWLQQKPDGTIKRLIYAASTLDSGVPKRFSGSRSGSDYSLTISSLESEDFADYYCLQYASYPWTFGGGTKLEIK
notes: Murine anti-human IL1RAP mAb
In the case of B5, in experiment [11], the dissociation constant Kd is 4.97 nM, the koff was determined as 0.000282 s⁻¹ and the kon is 56700 M⁻¹ s⁻¹.

B6: murine mAb048 (antibody, V domains shown)
VH: QVQLQQPGADLVKPGASVKLSCKAYGYTFFSYWMHWVRQRPGQGLEWIGMIHPNSGTTNNNEKFKSKATLTVDKSFSTAYMQLSSLTSEDSAVYYCARGYSNYDFDYWGQGTILTVSS
VL: DIKMTQFPSSMYASLGERVTITCKASQDINTYLIWIQQKPGKSPKTLIYRANRLADGVPSRFSGSGSGQDSSLTISSLEHEDMGIYYCLQYDEFPYTFGGGTKLEIK
notes: Murine anti-human IL1RAP mAb
For B6, in [11], binding was characterised by a dissociation constant (Kd) of 0.357 nM, the koff is 4.48e-05 s⁻¹ and the kon stood at 125000 M⁻¹ s⁻¹.

B7: murine mAb117 (antibody, V domains shown)
VH: QAYLQQSGAELVRPGASVKMSCKASGYTFTSYNMHWVKQSPRQGLEWVGVFYLGNGDTSYNEKFKGKATLTVDKSSSTAYMQLSSLTSEDSAVYFCARPGGYANWYFDVWGTGTTVTVSS
VL: DIVMTQSQKFMSTSVGDWVSVTCKASQNVGTEVSWYQQKPGQSPNTLIYSASYRHSGVPDRFTGSGSGTEFTLTITNVQSEDLADYFCQQYNSFPLTFGAGTKLDLK
notes: Murine anti-human IL1RAP mAb
In experiment [11], B7 showed a dissociation constant (Kd) of 0.193 nM, an off-rate constant (koff) of 4.28e-05 s⁻¹ and an on-rate constant (kon) of 222000 M⁻¹ s⁻¹.
